Source: article PMC3390373

Target: FLAG-tagged C-terminally truncated RPS0A (residues 1–197) (S. cerevisiae) (UniProt P32905)
Assay: co-IP; WCE of H2880 wt cells overexpressing wt or C-terminally truncated RPS0A-FLAG; anti-FLAG M2 affinity matrix, 60 min, 4°C, buffer A200T (200 mM KCl, 20 mM Tris pH 8, 5 mM Mg acetate, 1 mM DTT, 0.2% Triton X-100); whole 40S subunits with their associated eIFs are recovered through the tagged RPS0A; Western blot, normalised to ASC1 (Figure 5B)

UniProt P32905, sequence (P32905 1-197): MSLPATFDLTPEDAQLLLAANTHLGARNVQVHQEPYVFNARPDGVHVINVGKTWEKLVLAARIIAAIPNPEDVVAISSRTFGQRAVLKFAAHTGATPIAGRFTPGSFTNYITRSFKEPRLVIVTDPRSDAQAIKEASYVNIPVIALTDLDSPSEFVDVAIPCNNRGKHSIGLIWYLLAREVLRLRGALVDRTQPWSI

percent reduction of the co-purified amount against wt RPS0A-FLAG: 70%
Substance: eIF2 (from UniProt P32481 1-527) (complex)
